Data from publication PMC4967814.

Target: each of 12 IFNα subtypes and IFNω (ISRE-luciferase reporter assay, median IC50)

median IC50 of inhibition of the IFN-induced ISRE-luciferase reporter response in transfected HEK293 cells: 0.0109 µg/mL
B1: rontalizumab, in-house-generated recombinant (antibody, INN chains, looked up, V domains shown)
VH: EVQLVESGGGLVQPGGSLRLSCATSGYTFTEYIIHWVRQAPGKGLEWVASINPDYDITNYNQRFKGRFTISLDKSKRTAYLQMNSLRAEDTAVYYCASWISDFFDYWGQGTLVTVSS
VL: DIQMTQSPSSLSASVGDRVTITCRASQSVSTSSYSYMHWYQQKPGKAPKVLISYASNLESGVPSRFSGSGSGTDFTLTISSLQPEDFATYYCQHSWGIPRTFGQGTKVEIKR
